This assay deals with T1, sCPR (truncated soluble form of rat NADPH–cytochrome P450 reductase) (rat) (UniProt P00388).
T1 sequence (P00388 whole entry, looked up): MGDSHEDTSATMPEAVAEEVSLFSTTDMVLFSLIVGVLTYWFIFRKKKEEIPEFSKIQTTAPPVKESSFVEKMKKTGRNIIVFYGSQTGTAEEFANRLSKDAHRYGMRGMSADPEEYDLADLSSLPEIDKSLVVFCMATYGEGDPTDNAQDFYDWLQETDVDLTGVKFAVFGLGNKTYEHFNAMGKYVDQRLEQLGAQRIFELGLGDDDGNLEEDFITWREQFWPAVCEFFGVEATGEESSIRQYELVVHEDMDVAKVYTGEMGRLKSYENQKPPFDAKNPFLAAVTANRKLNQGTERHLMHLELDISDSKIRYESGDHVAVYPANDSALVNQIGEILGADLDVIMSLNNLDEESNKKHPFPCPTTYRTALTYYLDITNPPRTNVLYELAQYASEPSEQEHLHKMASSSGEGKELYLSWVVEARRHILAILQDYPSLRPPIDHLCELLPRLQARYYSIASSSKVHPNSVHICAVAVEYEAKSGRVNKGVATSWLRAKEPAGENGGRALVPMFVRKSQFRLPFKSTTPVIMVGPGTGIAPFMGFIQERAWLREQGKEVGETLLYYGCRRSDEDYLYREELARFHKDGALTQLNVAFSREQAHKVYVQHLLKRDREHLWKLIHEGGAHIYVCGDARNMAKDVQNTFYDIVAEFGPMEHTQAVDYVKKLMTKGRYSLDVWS

Changes are numbered by the printed parent chain. Names and notes keep the numbering of the source.

As to “6xHis-tagged ΔHRM tsHO-2 (from UniProt P23711 29-292) (enzyme)”, the apparent reduction rate constant of heme by sCPR (formation of the CO-bound heme complex, CO-saturated, anaerobic, 30 °C; non-His-tagged enzyme) amounted to 106 min⁻¹ and the enzymatic activity (rate of bilirubin formation at 37 °C with 2.9 μM sCPR, 40 μM heme, NADPH; non-His-tagged enzyme) came out at 14.3 min⁻¹.

B1: 6xHis-tagged C281S tsHO-2 (enzyme)
chain: MADLSELLKEGTKEAHDRAENTQFVKDFLKGNIKKELFKLATTALYFTYSALEEEMDRNKDHPAFAPLYFPTELHRKEALIKDMEYFFGENWEEQVKCSEAAQKYVDRIHYVGQNEPELLVAHAYTRYMGDLSGGQVLKKVAQRALKLPSTGEGTQFYLFEHVDNAQQFKQFYRARMNALDLSMKTKERIVEEANKAFEYNMQIFSELDQAGSMLTKETLEDGLPVHDGKGDVRKCPFYAAQPDKGTLGGSNSPFRTAMAVLRK
Turning to B1, the apparent reduction rate constant of heme by sCPR (formation of the CO-bound heme complex, CO-saturated, anaerobic, 30 °C; non-His-tagged enzyme) is 89.6 min⁻¹ and the enzymatic activity (rate of bilirubin formation at 37 °C with 2.9 μM sCPR, 40 μM heme, NADPH; non-His-tagged enzyme) was determined as 7.32 min⁻¹.

B2: 6xHis-tagged C264S/C281S tsHO-2 (enzyme)
chain: B1 chain with C236S
Turning to B2, the apparent reduction rate constant of heme by sCPR (formation of the CO-bound heme complex, CO-saturated, anaerobic, 30 °C; non-His-tagged enzyme) came out at 113 min⁻¹ and the enzymatic activity (rate of bilirubin formation at 37 °C with 2.9 μM sCPR, 40 μM heme, NADPH; non-His-tagged enzyme) was determined as 11.2 min⁻¹.

B3: 6xHis-tagged C264S tsHO-2 (enzyme)
chain: B1 chain with C236S, S253C
Turning to B3, the apparent reduction rate constant of heme by sCPR (formation of the CO-bound heme complex, CO-saturated, anaerobic, 30 °C; non-His-tagged enzyme) was 93.2 min⁻¹ and the enzymatic activity (rate of bilirubin formation at 37 °C with 2.9 μM sCPR, 40 μM heme, NADPH; non-His-tagged enzyme) is 4.91 min⁻¹.

These data come from publication PMC11900463.
